Reference: patent US20030027981A1, “Urokinase-type plasminogen activator receptor” (priority 1989, published 2003)

What was measured:
HT-1080 cells = test: Plasmin release from plasmin-loaded HT-1080 cells; format: cell-based, human; settings: 1 mM tranexamic acid added to the serum-containing medium
Procedure: FIG. 24. Plasmin release from HT-1080 cells into serum-free and serum-containing media. Confluent layers of HT-1080 cells were first loaded with plasmin by incubation for 1 hour at 37° C. in serum-free MEM medium (0.5 ml) containing human plasmin (0-5 μg/ml). After rinsing the cell layers three times, they were incubated for 2 hours at 37° C. with either serum-free medium (∘ - - - ∘), medium containing 10% heat-inactivated and plasminogen-depleted fetal calf serum (● - - - ●), or the latter with tranexamic acid (100 μM) (▪ - - - ▪). Plasmin was then assayed in the cell-bound fraction (A) and the media (B). At the time of transfer to new media, there was approximately 28 ng of plasmin bound to the cells from the pretreatment with 2.5 μg of plasmin/well.
In the Examples concerning plasmin binding to cells from medium, human plasmin (approximately 18 CU/mg; Kabi Diagnostica, Stockholm, Sweden) was added to the cultures at final concentrations of 0-5 μg/ml. The cells were incubated for 3 hours at 37° C. before assay of cell-bound and supernatant plasmin (see below). For plasmin release experiments, cells were loaded for 1 hour at 37° C. with 0-5 μg/ml plasmin in serum-free medium, then rinsed three times with MEM.
Plasmin bound to the cell layer was recovered and assayed as follows. After harvest of culture medium, the cells were rinsed three times with PBS (plasmin assays of further rinses were negative); then the bound plasmin was specifically eluted (Miles, L. A., and E. F. Plow, “Binding and activation of plasminogen on the platelet surface”, J. Biol. Chem. 260: 4303-4311, 1985) with a solution of 1 mM tranexamic acid in the same rinsing solution (150 μl/well). Plasmin activity was assayed in eluate samples (50 μl) as above with an incubation time of 3 hours at 37° C. Tranexamic acid at 1 mM had no effect on the thioesterase activity of plasmin in these assays.

u-PAR = u-PAR (Homo sapiens, UniProt Q03405); test: Chemical cross-linking of 125I-ATF to purified u-PAR; format: binding; settings: unlabelled reagent 100 nM, u-PAR approx. 1 nM, 125I-ATF approx. 1 nM
Sequence of u-PAR (Q03405 23-305 limits assumed): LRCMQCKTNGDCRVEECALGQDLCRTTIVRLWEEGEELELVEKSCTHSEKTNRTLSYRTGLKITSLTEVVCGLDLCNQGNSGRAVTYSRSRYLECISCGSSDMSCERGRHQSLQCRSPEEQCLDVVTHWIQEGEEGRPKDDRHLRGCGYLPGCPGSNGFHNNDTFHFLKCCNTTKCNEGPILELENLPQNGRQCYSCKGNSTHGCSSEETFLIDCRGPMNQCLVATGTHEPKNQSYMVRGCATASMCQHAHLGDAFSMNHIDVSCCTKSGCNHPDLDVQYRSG
Procedure: B) Affinity column eluate was diluted to yield an approximate concentration of u-PAR of 1 nM during the assay. The samples were preincubated alone (lane 2) or in the presence of the following unlabelled reagents at a concentration of 100 nM: bovine serum albumin (lane 3), t-PA (lane 4), plasminogen (lane 5), murine epidermal growth factor (lane 6), ATF (lane 7), active 54 kD u-PA (lane 8), DFP-inactivated 54 kD u-PA (lane 9). After preincubation for 15 min at room temperature, ^125I-labelled ATF (approximately 1 nM) was added, followed by incubation for 1 hour at 4° C. After incubation, chemical cross-linking was performed with DSS, after which the samples were analyzed by SDS-PACE on a 6-16% gradient gel under non-reducing conditions and autoradiography. […] Electrophoretic mobilities of molecular weight standard proteins are inducated (kD).
Cross-linking of u-PAR in complex mixtures or purified fractions to ^125I-labelled ATF was performed as described for solubilized receptor (Nielsen et al., 1988), except that 2 mM disuccinimidylsuberate (DSS) was used for cross-linking. Cross-linking of purified u-PAR to DFP-treated u-PA for analysis by SDS-PAGE and silver-staining was performed in the same manner, except that non-labelled DFP-treated u-PA was used as the ligand.

cultured cells = settings: plasminogen, cultured cells; cited from earlier work
thrombospondin = thrombospondin (Homo sapiens, UniProt P07996); settings: purified thrombospondin; cited from earlier work
Sequence of thrombospondin (P07996 19-1170): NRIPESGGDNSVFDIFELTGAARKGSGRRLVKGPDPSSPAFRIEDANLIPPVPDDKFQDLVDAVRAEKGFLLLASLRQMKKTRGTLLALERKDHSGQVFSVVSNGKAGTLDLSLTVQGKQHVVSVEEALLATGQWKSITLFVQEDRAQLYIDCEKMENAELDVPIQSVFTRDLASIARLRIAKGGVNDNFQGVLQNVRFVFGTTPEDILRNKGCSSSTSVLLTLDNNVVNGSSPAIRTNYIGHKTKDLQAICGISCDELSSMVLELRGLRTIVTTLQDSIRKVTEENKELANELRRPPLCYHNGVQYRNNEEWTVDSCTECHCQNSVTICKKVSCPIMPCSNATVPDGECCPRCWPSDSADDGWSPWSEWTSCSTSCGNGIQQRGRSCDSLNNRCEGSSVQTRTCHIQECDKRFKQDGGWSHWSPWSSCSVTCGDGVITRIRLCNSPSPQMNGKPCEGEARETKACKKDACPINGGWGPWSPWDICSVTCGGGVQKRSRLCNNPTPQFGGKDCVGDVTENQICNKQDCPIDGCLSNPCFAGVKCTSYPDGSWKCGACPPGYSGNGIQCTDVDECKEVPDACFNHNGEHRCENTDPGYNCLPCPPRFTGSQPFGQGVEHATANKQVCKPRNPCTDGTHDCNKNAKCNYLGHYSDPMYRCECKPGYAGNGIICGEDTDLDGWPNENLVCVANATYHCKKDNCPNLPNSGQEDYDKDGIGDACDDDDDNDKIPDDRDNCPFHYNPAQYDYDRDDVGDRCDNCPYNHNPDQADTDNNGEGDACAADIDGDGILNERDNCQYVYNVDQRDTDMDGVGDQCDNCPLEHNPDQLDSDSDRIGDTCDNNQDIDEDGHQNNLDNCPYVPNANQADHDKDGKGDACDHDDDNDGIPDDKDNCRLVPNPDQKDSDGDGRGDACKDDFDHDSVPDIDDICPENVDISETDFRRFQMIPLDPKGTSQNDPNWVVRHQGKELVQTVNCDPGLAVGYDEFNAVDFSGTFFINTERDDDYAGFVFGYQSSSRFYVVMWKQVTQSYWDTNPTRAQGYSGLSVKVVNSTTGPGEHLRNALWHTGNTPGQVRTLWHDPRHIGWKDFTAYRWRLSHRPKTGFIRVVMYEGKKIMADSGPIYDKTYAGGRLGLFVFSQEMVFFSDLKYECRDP

laminin = settings: immobilized laminin; cited from earlier work
fibronectin = fibronectin (Homo sapiens, UniProt P02751); settings: immobilized fibronectin; cited from earlier work
Sequence of fibronectin (P02751 32-2477, species assumed): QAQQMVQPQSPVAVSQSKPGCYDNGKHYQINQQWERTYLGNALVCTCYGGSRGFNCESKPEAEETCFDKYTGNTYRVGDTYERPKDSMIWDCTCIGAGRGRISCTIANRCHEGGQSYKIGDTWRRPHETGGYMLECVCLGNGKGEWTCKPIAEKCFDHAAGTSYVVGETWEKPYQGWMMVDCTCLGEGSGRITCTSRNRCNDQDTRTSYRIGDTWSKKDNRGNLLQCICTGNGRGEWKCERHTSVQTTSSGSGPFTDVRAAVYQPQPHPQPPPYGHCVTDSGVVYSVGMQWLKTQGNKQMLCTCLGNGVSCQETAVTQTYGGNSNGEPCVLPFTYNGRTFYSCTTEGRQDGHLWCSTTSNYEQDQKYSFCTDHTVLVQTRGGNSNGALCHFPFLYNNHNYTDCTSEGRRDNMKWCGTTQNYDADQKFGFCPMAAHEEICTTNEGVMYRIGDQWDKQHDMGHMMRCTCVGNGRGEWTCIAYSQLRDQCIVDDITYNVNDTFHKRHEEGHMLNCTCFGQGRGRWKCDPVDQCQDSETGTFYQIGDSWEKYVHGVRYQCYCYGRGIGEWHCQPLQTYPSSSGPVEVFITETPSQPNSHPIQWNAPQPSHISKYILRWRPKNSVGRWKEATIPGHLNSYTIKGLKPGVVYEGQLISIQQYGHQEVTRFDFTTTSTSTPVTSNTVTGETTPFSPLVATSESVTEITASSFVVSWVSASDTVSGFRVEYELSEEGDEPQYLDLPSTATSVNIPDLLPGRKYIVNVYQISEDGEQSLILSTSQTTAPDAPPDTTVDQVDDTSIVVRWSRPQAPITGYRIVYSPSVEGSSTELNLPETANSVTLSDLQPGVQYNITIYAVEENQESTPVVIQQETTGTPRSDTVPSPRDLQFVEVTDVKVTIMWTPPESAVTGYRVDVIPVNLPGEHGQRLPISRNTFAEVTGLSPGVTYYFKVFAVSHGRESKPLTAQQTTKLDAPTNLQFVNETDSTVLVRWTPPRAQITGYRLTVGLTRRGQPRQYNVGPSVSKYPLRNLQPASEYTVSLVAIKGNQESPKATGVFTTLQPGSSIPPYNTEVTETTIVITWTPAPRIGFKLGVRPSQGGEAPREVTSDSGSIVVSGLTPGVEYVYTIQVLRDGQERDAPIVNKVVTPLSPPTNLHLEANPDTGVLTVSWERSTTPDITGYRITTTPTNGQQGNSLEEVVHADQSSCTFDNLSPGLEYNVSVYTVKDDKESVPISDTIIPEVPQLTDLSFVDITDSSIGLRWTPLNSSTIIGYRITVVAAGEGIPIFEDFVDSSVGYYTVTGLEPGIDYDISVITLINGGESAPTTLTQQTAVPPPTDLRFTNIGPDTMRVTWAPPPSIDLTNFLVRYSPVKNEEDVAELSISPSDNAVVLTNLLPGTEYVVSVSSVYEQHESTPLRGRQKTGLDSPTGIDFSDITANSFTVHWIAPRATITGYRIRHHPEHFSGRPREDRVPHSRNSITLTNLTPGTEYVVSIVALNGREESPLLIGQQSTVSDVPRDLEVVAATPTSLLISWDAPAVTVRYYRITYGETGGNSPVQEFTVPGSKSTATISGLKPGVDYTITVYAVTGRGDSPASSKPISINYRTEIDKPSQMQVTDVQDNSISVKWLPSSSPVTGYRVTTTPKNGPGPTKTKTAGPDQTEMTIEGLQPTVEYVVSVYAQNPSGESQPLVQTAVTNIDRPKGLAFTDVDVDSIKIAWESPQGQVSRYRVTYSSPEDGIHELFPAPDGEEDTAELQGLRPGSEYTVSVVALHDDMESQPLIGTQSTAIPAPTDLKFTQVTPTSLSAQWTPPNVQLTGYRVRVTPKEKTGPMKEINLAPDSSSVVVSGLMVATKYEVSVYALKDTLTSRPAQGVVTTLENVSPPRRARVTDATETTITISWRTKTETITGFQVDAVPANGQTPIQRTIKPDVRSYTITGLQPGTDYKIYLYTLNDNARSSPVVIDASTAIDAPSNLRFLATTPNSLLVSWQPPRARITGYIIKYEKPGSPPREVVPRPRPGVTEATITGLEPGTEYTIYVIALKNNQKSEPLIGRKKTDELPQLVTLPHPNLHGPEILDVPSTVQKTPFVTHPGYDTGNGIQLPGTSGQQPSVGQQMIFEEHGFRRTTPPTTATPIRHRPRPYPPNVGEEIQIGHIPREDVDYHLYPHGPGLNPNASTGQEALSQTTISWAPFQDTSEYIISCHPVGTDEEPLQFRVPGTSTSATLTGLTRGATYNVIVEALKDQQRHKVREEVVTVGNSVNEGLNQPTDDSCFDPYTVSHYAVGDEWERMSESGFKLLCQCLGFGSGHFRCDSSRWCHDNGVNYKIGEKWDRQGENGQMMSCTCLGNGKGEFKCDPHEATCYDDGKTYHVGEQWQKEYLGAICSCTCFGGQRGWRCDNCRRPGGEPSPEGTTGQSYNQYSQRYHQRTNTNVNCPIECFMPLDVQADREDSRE

u-PA = u-PA (Homo sapiens, UniProt P00749); test: Inhibition of u-PA in solution by PAI's (association rate constants); format: biochemical
Source text: Plasminogen was purified from fresh human plasma as previously described (Danø and Reich, 1979), and was further separated into its two isoforms by elution from lysine-Sepharose with a linear gradient of 6-amino-hexanoic acid. Plasminogen isoform 2 was used in all experiments described here. u-PA (Mr 55,000) was obtained either by plasmin activation of pro-uPA (Ellis et al., 1987) or as Ukidan (Serono). Both preparations were greater than 95% high molecular weight u-PA by SDS-polyacrylamide gel electrophoresis. The concentration of active u-PA in these preparations was determined by active-site titration with p-nitrophenyl-p-guanidinobenzoate (Sigma Chem. Co.). DFP-inactivated u-PA was prepared as described in Example 1. […] The concentrations of active inhibitor in the various PAI preparations were determined by titration against u-PA immediately before use in the kinetic experiments. […] Residual u-PA activity was then measured by hydrolysis of 0.2 mM Glu-Gly-Arg-AMC (Bachem, Switzerland).
The effect of PAI's on the activity of cell-bound u-PA was determined by the addition of varying concentrations of PAI-1 (0.18-18.4 nM) or PAI-2 (1.13-56.7 nM) to the incubations at the same time as the addition of plasminogen. […]
[pln]∞ was calculated from the relationship: […]
where Δ[pln]0 is the initial rate of plasmin generation which was determined in control incubations in the absence of inhibitors. […]

NC[C@H]1CC[C@H](C(=O)O)CC1 [TA, tranexamic acid]
Plasmin activity recovered from the cells (HT-1080 cells): no plasmin activity could be recovered from the cells

Plg: native human plasminogen (glutamic acid N-terminal) purified from human plasma on lysine-Sepharose
Competition for binding and cross-linking of 125I-labelled ATF to purified u-PAR (u-PAR): no competition | Kd (cultured cells): 1000 nM | Kd (thrombospondin): 35 nM | Kd (laminin): 3 nM | Kd (fibronectin): 90 nM

B1: PAI-2: human type-2 plasminogen activator inhibitor purified from U937 cells (protein, UniProt P05120 1-415, looked up)
Plasminogen activator …: MEDLCVANTLFALNLFKHLAKASPTQNLFLSPWSISSTMAMVYMGSRGSTEDQMAKVLQFNEVGANAVTPMTPENFTSCGFMQQIQKGSYPDAILQAQAADKIHSSFRSLSSAINASTGNYLLESVNKLFGEKSASFREEYIRLCQKYYSSEPQAVDFLECAEEARKKINSWVKTQTKGKIPNLLPEGSVDGDTRMVLVNAVYFKGKWKTPFEKKLNGLYPFRVNSAQRTPVQMMYLREKLNIGYIEDLKAQILELPYAGDVSMFLLLPDEIADVSTGLELLESEITYDKLNKWTSKDKMAEDEVEVYIPQFKLEEHYELRSILRSMGMEDAFNKGRANFSGMSERNDLFLSEVFHQAMVDVNEEGTEAAAGTGGVMTGRTGHGGPQFVADHPFLFLIMHKITNCILFFGRFSSP
Association rate constant (u-PA; direct assay with u-PA specific fluorogenic peptide substrate): 520000 M⁻¹ s⁻¹ | Association rate constant (u-PA; plasminogen activation assay): 530000 M⁻¹ s⁻¹
